B1: 4B5 (antibody, V domains shown)
VH: EVILVESGGDLVKPGGSLKLSCAASGFTFSSYMMSWVRQTPEKRLEWVATISGGGANTYYLDSMKGRFTISRDNAKNILYLQMSSLRSEDTAFYYCARQSDRGFPYWGQGTLVTVSA
VL: DIQMTQSPASQSASLGESVTITCLASQPIGTWLAWYQQKPGTSPQLLIFAATTLTDGVPSRFSGSGSGTKFSFKISSLQAEDFVSYYCQQFSSIPYTFGGGTRLEIK
notes: Mouse monoclonal antibody purified from hybridoma supernatant by Protein A; also called 鼠源PD-1单克隆抗体4B5; PD-1杂交瘤抗体4B5
B2: 5F7 (antibody, V domains shown)
VH: EVMLVESGGDLVKPGGSLKLSCAASGFTFSSYMMSWVRQTPEKRLEWVAAISGGGGDTYYPDSVKGRFTISRDNAKNTLYLQMSSLRSEDTALYYCARRVVYAMDCWGQGTSVTVSS
VL: DIQMTQSPASQSASLGESVTITCLASQSIGTWLVWYQQKPGKSPQLLISAATSLADGVPSRFSGSGSGTKFSFKISSLQAEDFVSYYCQQLYIIPWTFGGGTKLEIK
notes: Mouse monoclonal antibody purified from hybridoma supernatant by Protein A; also called 鼠源PD-1单克隆抗体5F7; PD-1杂交瘤抗体5F7
B3: 5H10 (antibody, V domains shown)
VH: EVQLVESGGGLVKPGGSLKLSCAASGFTFSDYGMHWVRQAPEKGLEWVAYISGDSNTIYYADTVKGRFTISRDNAKNTLFLQMTSLRSEDTAMYYCTKRGPYYGYTHYFDYWGQGTTLTVSS
VL: SIVMTQTPKFLLVSAGDRVTMTCKASQSVSNDVVWYQQKPGQSPKLLIYYASKRYTGVPDRFTGNGYGTDFTFTISTVQAEDLAVYFCQQDYSSPWTFGGGTKLEIK
notes: Mouse monoclonal antibody purified from hybridoma supernatant by Protein A; also called 鼠源PD-1单克隆抗体5H10; PD-1杂交瘤抗体5H10
B4: 8D4 (antibody, V domains shown)
VH: EVQLQQSGTVLARPGASVKMSCKTSGYTFTNFWMHWVKQRPGQGLDWIGAIFPGNTDTTYNRKFKDKAKLTAVTSASTAYMELSSLTNEDSAVYYCTRNHYGLDYWGQGTSVTVSS
VL: DIVLTQSPASLAVSLGQRATISCRASESVSIHGTHLMHWYQQKPGQPPKLLIYIASNLGSGVPARFSGSGSETDFTLNIHPVEEEDAATYFCQQSIEDPWTFGGGTKLEIK
notes: Mouse monoclonal antibody purified from hybridoma supernatant by Protein A; also called 鼠源PD-1单克隆抗体8D4; PD-1杂交瘤抗体8D4
B5: 10A10 (antibody, V domains shown)
VH: EVKLVESGGDLVKPGGSLKLSCAASGFTFNYYDISWVRQTPEKRLEWVATISGGGRYTYYLDNVQGRFTISRDNAKNILYLQMNSLRSDDTALYFCASPYEGAMDYWGQGTSVTVSS
VL: DIVMTQSHKFMSTSIGDGVNITCKASQDVGTAVAWYQQKPGQSPKLLNKWASTRHTGVPDRFTGSGSGTDFTLTINNVQSEDLADYFCQQYSTFPYTFGGGTNLELK
notes: Mouse monoclonal antibody purified from hybridoma supernatant by Protein A; also called 鼠源PD-1单克隆抗体10A10; PD-1杂交瘤抗体10A10
B6: 9H8 (antibody, V domains shown)
VH: EVKLVESGGGLVQPGGSLKLSCATSGFTFSDYYMYWVRQTPEKRLEWVAQISNGGGNTYYPDTVKGRFTISRDNAKNTLYLQMSRLKSEDTAIYYCSKSYYKYDGWYFDVWGAGTTVTVSS
VL: DIVLTQSPASLAVSLGQRATISCRASESVEYSRTSLIQWYQLKPGQPPKLLIYAASYVESGVPDRFSGSGSGTEFSFNIHPVEEDDIAMYFCQQARKVPWTFGGGTNLEIK
notes: Mouse monoclonal antibody purified from hybridoma supernatant by Protein A; also called 鼠源PD-1单克隆抗体9H8; PD-1杂交瘤抗体9H8
B7: hu9H8-hIgG4 (antibody, V domains shown)
VH: EVQLLESGGGLVQPGGSLRLSCAASGFTFSDYYMYWVRQAPGKGLEWVSQISNGGGNTYYPDTVKGRFTISRDNSKNTLYLQMNSLRAEDTAVYYCSKSYYKYDGWYFDVWGQGTLVTVSS
VL: DIVMTQSPDSLAVSLGERATINCRASESVEYSRTSLIQWYQQKPGQPPKLLIYAASYVESGVPDRFSGSGSGTDFTLTISSLQAEDVAVYYCQQARKVPWTFGQGTKLEIK
notes: Humanised antibody built as IgG4 subtype, expressed in 293 cells; also called 9H8人源化抗体; 人源化抗体9H8
B8: hu8D4-hIgG4 (antibody, part only; not given: Light chain variable domain, constant regions, V domains shown, part only)
VH: QVQLVQSGAEVKKPGASVKVSCKASGYTFTNFWMHWVRQAPGQRLEWIGAIFPGNTDTTYNRKFKDRATLTADTSASTAYMELSSLRSEDTAVYYCTRNHYGLDYWGQGTLVTVSS

Target: T1, 人的PD-1胞外区与人Fc融合蛋白(PD-1-ECD-hFc) (human, UniProt Q15116 25-170)
T1 construct: extracellular domain; Coated on ELISA plates; also called PD-1-hFc; not shown: human Fc
T1 sequence (Q15116 25-170): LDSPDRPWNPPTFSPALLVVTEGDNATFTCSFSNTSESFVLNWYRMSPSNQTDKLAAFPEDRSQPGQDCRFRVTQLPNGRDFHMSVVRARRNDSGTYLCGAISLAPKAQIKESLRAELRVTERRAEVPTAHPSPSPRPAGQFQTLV
Assay: competition ELISA, PD-1-ECD-hFc coated, competitor PD-L1-Biotin

IC50 | Binder
0.343 µg/mL | B1
0.324 µg/mL | B2
0.339 µg/mL | B3
0.37 µg/mL | B4
0.361 µg/mL | B5
0.319 µg/mL | B6

Target: T2, PD-1 on 293T-PD-1 cells (UniProt Q15116 25-288, limits assumed)
T2 construct: whole, on cells; the antibodies are anti-human PD-1
T2 sequence (Q15116 25-288 limits assumed): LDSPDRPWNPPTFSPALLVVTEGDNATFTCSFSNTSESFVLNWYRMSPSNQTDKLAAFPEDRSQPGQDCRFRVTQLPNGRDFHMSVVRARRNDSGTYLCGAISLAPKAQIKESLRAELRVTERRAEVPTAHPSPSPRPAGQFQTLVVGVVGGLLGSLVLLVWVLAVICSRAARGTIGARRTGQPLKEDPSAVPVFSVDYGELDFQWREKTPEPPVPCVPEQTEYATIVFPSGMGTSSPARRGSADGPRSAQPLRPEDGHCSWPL
Assay: FACS on 293T-PD-1 cells

EC50 | Binder
0.285 µg/mL | B7
0.311 µg/mL | B8

Target: T2, PD-1 on 293T-PD-1 cells
Assay: competition FACS on 293T-PD-1 cells, competitor PD-L1-biotin (row head prints EC50, title IC50)

IC50 | Binder
0.0355 µg/mL | B1
0.0181 µg/mL | B2
0.0412 µg/mL | B3
0.0296 µg/mL | B4
0.0276 µg/mL | B5
0.00854 µg/mL | B6

Target: T2, PD-1 on 293T-PD-1 cells
Assay: FACS on 293T-PD-1 cells, PE goat anti-mouse detection

EC50 | Binder
0.04 µg/mL | B1
0.0176 µg/mL | B2
0.0643 µg/mL | B3
0.0443 µg/mL | B4
0.0314 µg/mL | B5
0.0203 µg/mL | B6

Target: T3, 人的PD-1胞外区与小鼠Fc融合蛋白(PD-1-ECD-mFc) (human, UniProt Q15116 25-170)
T3 construct: extracellular domain; also called PD-1-mFc; not shown: mouse Fc
T3 sequence (Q15116 25-170): as the sequence (Q15116 25-170) above
Assay: ELISA on coated PD-1-mFc (antigen per legend of figure 6)

EC50 | Binder
0.00532 µg/mL | B7
0.0489 µg/mL | B8

Target: T1, 人的PD-1胞外区与人Fc融合蛋白(PD-1-ECD-hFc)
Assay: competition ELISA, coated PD-1-hFc (per table title; figure 7 legend says PD-1-mFc), competitor PD-L1-Biotin

IC50 | Binder
0.332 µg/mL | B7
0.851 µg/mL | B8

Target: T1, 人的PD-1胞外区与人Fc融合蛋白(PD-1-ECD-hFc)
Assay: ELISA, PD-1-ECD-hFc coated, goat anti-mouse IgG detection

EC50 | Binder
0.00175 µg/mL | B1
0.00123 µg/mL | B2
0.00109 µg/mL | B3
0.00261 µg/mL | B4
0.00114 µg/mL | B5
0.000511 µg/mL | B6

From patent publication CN114316047A (DONGDA BIOTECHNOLOGY SUZHOU CO LTD, dated 2022)
